Test results as given in patent US20250009876A1 (H LUNDBECK A S, published 2025).

Assays:
[1] = target: T1, PACAP38 (Pituitary Adenylate Cyclase-Activating Polypeptide, 38 amino acids) (human, not fully specified; the C-terminal lysine is amidated); assay: cell-based or functional assay
T1 peptide: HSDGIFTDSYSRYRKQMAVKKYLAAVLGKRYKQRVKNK

[2] = target: T2, PACAP27 (Pituitary Adenylate Cyclase-Activating Polypeptide, 27 amino acids) (human, the C-terminal leucine is amidated); assay: cell-based or functional assay
T2 peptide: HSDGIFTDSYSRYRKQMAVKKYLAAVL

[3] = target: T1, PACAP38 (Pituitary Adenylate …); assay: cell-based or functional assay
[4] = target: T1, PACAP38 (Pituitary Adenylate …); assay: cell-based or functional assay
[5] = target: T1, PACAP38 (Pituitary Adenylate …); assay: SPR (ProteOn XPR36), antibody amine-coupled, peptide analyte, 1:1 Langmuir fit
How it was run: (§1)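 Antibody amine-coupled to GLC or GLM chips; peptide antigen injected at 1.23 nM to 100 nM, association 2-4 min, dissociation 3-120 min. Sensorgrams fitted to a 1:1 Langmuir model; surfaces regenerated with 0.85% phosphoric acid between analytes.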

[6] = target: T2, PACAP27 (Pituitary Adenylate …); assay: as above
How it was run: as §1

[7] = target: T3, PAC1-R on PAC1-R-expressing PC-12 cells (UniProt P32215 20-523); assay: cell surface binding assay (DELFIA TRF): antibody pre-incubated with PACAP38, added to PAC1-R-expressing PC-12 cells, detected with Eu anti-human IgG
T3 construct: whole, on cells; also called PAC1 receptor
T3 sequence (looked up): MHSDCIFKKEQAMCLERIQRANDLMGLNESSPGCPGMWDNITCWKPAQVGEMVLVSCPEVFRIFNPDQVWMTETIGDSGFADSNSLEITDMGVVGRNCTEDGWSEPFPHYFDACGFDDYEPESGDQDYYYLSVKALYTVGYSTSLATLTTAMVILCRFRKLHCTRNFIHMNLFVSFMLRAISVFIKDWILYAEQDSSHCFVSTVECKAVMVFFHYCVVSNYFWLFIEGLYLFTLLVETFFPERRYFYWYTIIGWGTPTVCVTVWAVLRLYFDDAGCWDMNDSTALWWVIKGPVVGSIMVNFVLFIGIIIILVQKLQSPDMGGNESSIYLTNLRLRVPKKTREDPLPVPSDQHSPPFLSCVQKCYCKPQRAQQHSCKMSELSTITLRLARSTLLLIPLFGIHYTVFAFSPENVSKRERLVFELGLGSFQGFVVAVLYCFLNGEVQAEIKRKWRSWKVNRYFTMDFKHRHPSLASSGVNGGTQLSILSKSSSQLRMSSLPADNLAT

Row | Binder | Inhibition of 0.1 nM PACAP38-induced PAC1-R mediated cAMP increase IC50 (pM) [1] | Inhibition of 0.1 nM PACAP27-induced PAC1-R mediated cAMP increase IC50 (pM) [2] | Inhibition of 5 nM PACAP38-induced human VPAC1-R mediated cAMP increase IC50 (pM) [3] | Inhibition of 1 nM PACAP38-induced human VPAC2-R mediated cAMP increase IC50 (pM) [4] | Kd [5] | koff [5] | kon [5] | Kd [6] | koff [6] | kon [6] | binding result [7]
1 | Ab10 (antibody, human IgG1, kappa, N297A, V domains shown, Full-length anti-PACAP antibody; rabbit variable regions cloned onto human constant regions (rabbit/human chimeric), expressed in HEK-293) VH: QSVEESGGRLVTPGTPLTLTCTVSGIDLNSYYMTWVRQAPGKGLEWIGFIDAGGDAYYASWAKGRFTISKTSTTVDLKITSPTTEDTATYFCARDLDLWGQGTLVTVSS VL: AAVLTQTPSPVSAAVGGTVTINCQSSESVYGNYLAWFQQKPGQPPKLLIYEASKLESGVPSRFSGSGSGTQFTLTISDLQCDDAATYYCAGGDISEGVAFGGGTEVVVKR | 180 pM | 227 pM | 649 pM | 188 pM | 0.075 nM | 2e-05 s⁻¹ | 260000 M⁻¹ s⁻¹ | ≤ 0.01 nM | ≤ 1e-05 s⁻¹ | 1e+06 M⁻¹ s⁻¹ | no binding (tested: about 5000 nM)
2 | Ab20 (antibody, human IgG1, kappa, N297A, V domains shown, Full-length anti-PACAP antibody; rabbit/human chimeric) VH: QSVEESGGRLVTPGTPLTLTCTVSGIDLSSYYMSWVRQAPGKGLEWIGFIDTDGSAYYATWAKGRFTISKTSTTVDLKITSPTTEDTATYFCARDLDLWGPGTLVTVSS VL: AAVLTQTPSPVSAAVGGTVSISCQSSESVYSNYLAWFQQKPGQPPKFLIYEASKLASGVPSRFKGSGSGTQFTLTISDVQCDDAGTYYCAGGYSSEGVAFGGGTEVVVKR | 368 pM | 188 pM | 3890 pM | 14600 pM | 0.21 nM | 2.4e-05 s⁻¹ | 120000 M⁻¹ s⁻¹ | 0.07 nM | 2.2e-05 s⁻¹ | 320000 M⁻¹ s⁻¹ | no binding (tested: about 500 nM)
3 | Ab10.H (antibody, human IgG1, kappa, N297A, Full-length humanized variant of Ab10) heavy: not shown light: DAQLTQSPSTLSASVGDRVTITCQSSESVYGNYLAWFQQKPGKAPKFLIYEASKLESGVPSRFSGSGSGTEFTLTISSLQPDDFATYYCAGGDISEGVAFGGGTKVEIKRTVAAPSVFIFPPSDEQLKSGTASVVCLLNNFYPREAKVQWKVDNALQSGNSQESVTEQDSKDSTYSLSSTLTLSKADYEKHKVYACEVTHQGLSSPVTKSFNRGEC | 163 pM | 84 pM | 1340 pM | 988 pM | ≤ 0.029 nM | ≤ 1e-05 s⁻¹ | 340000 M⁻¹ s⁻¹ | 0.033 nM | 1.8e-05 s⁻¹ | 530000 M⁻¹ s⁻¹ | no binding (tested: about 70 nM)
